Assay results as given in PMC12259117 (bioRxiv, 2025).

What was measured:
ParB CTD = target: T1, ParB CTD (Bacillus subtilis, UniProt P26497 217-282); assay: NMR
T1 sequence: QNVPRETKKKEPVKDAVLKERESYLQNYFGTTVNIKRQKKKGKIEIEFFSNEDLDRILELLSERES

SEC-MALS = target: the molecule itself; assay: SEC-MALS

| Binder | stoichiometry N (SEC-MALS) | further results |
| --- | --- | --- |
| GCGTACATCATTCCCTGATGTACGC (structured_DNA) [10-bp hairpin DNA] |  | binding result (ParB CTD): binds |
| BsParB(A232G), full length (natural protein) MAKGLGKGINALFNQVDLSEETVEEIKIADLRPNPYQPRKHFDDEALAELKESVLQHGILQPLIVRKSLKGYDIVAGERRFRAAKLAGLDTVPAIVRELSEALMREIALLENLQREDLSPLEEAQAYDSLLKHLDLTQEQLAKRLGKSRPHIANHLRLLTLPENIQQLIAEGTLSMGHGRTLLGLKNKNKLEPLVQKVIAEQLNVRQLEQLIQQLNQNVPRETKKKEPVKDGVLKERESYLQNYFGTTVNIKRQKKKGKIEIEFFSNEDLDRILELLSERES | 2 |  |
| BsParB(K252A-K255A-K259A) (natural protein) MAKGLGKGINALFNQVDLSEETVEEIKIADLRPNPYQPRKHFDDEALAELKESVLQHGILQPLIVRKSLKGYDIVAGERRFRAAKLAGLDTVPAIVRELSEALMREIALLENLQREDLSPLEEAQAYDSLLKHLDLTQEQLAKRLGKSRPHIANHLRLLTLPENIQQLIAEGTLSMGHGRTLLGLKNKNKLEPLVQKVIAEQLNVRQLEQLIQQLNQNVPRETKKKEPVKDAVLKERESYLQNYFGTTVNIARQAKKGAIEIEFFSNEDLDRILELLSERES |  | binding result (SEC-MALS): binds |
| BsParB(K257A), full length (natural protein) MAKGLGKGINALFNQVDLSEETVEEIKIADLRPNPYQPRKHFDDEALAELKESVLQHGILQPLIVRKSLKGYDIVAGERRFRAAKLAGLDTVPAIVRELSEALMREIALLENLQREDLSPLEEAQAYDSLLKHLDLTQEQLAKRLGKSRPHIANHLRLLTLPENIQQLIAEGTLSMGHGRTLLGLKNKNKLEPLVQKVIAEQLNVRQLEQLIQQLNQNVPRETKKKEPVKDAVLKERESYLQNYFGTTVNIKRQKKAGKIEIEFFSNEDLDRILELLSERES | 2 |  |
| BsParB(K256A), full length (natural protein) MAKGLGKGINALFNQVDLSEETVEEIKIADLRPNPYQPRKHFDDEALAELKESVLQHGILQPLIVRKSLKGYDIVAGERRFRAAKLAGLDTVPAIVRELSEALMREIALLENLQREDLSPLEEAQAYDSLLKHLDLTQEQLAKRLGKSRPHIANHLRLLTLPENIQQLIAEGTLSMGHGRTLLGLKNKNKLEPLVQKVIAEQLNVRQLEQLIQQLNQNVPRETKKKEPVKDAVLKERESYLQNYFGTTVNIKRQKAKGKIEIEFFSNEDLDRILELLSERES | 2 |  |
| BsParB(K252A), full length (natural protein) MAKGLGKGINALFNQVDLSEETVEEIKIADLRPNPYQPRKHFDDEALAELKESVLQHGILQPLIVRKSLKGYDIVAGERRFRAAKLAGLDTVPAIVRELSEALMREIALLENLQREDLSPLEEAQAYDSLLKHLDLTQEQLAKRLGKSRPHIANHLRLLTLPENIQQLIAEGTLSMGHGRTLLGLKNKNKLEPLVQKVIAEQLNVRQLEQLIQQLNQNVPRETKKKEPVKDAVLKERESYLQNYFGTTVNIARQKKKGKIEIEFFSNEDLDRILELLSERES | 2 |  |
| BsParB(K259A), full length (natural protein) MAKGLGKGINALFNQVDLSEETVEEIKIADLRPNPYQPRKHFDDEALAELKESVLQHGILQPLIVRKSLKGYDIVAGERRFRAAKLAGLDTVPAIVRELSEALMREIALLENLQREDLSPLEEAQAYDSLLKHLDLTQEQLAKRLGKSRPHIANHLRLLTLPENIQQLIAEGTLSMGHGRTLLGLKNKNKLEPLVQKVIAEQLNVRQLEQLIQQLNQNVPRETKKKEPVKDAVLKERESYLQNYFGTTVNIKRQKKKGAIEIEFFSNEDLDRILELLSERES | 2 |  |
| BsParB(K252A-K259A) (natural protein) MAKGLGKGINALFNQVDLSEETVEEIKIADLRPNPYQPRKHFDDEALAELKESVLQHGILQPLIVRKSLKGYDIVAGERRFRAAKLAGLDTVPAIVRELSEALMREIALLENLQREDLSPLEEAQAYDSLLKHLDLTQEQLAKRLGKSRPHIANHLRLLTLPENIQQLIAEGTLSMGHGRTLLGLKNKNKLEPLVQKVIAEQLNVRQLEQLIQQLNQNVPRETKKKEPVKDAVLKERESYLQNYFGTTVNIARQKKKGAIEIEFFSNEDLDRILELLSERES |  | binding result (SEC-MALS): binds |
| BsParB(K255A), full length (natural protein) MAKGLGKGINALFNQVDLSEETVEEIKIADLRPNPYQPRKHFDDEALAELKESVLQHGILQPLIVRKSLKGYDIVAGERRFRAAKLAGLDTVPAIVRELSEALMREIALLENLQREDLSPLEEAQAYDSLLKHLDLTQEQLAKRLGKSRPHIANHLRLLTLPENIQQLIAEGTLSMGHGRTLLGLKNKNKLEPLVQKVIAEQLNVRQLEQLIQQLNQNVPRETKKKEPVKDAVLKERESYLQNYFGTTVNIKRQAKKGKIEIEFFSNEDLDRILELLSERES | 2 |  |
